From PMC9482650, “Quantitative fragmentomics allow affinity mapping of interactomes” (Nature Communications, 2022)

Experiments:
Experiment in all cases: holdup assay
Design in all cases: key: below the threshold = too weak to quantify, mostly under pKd 3.1 to 4
[1] = biological target: DLG4_3, P78352
[2] = biological target: SCRIB_1, Q14160
[3] = biological target: MAGI2_5, Q86UL8
[4] = biological target: GRID2IP_1, A4D2P6
[5] = biological target: HTRA2, O43464
[6] = biological target: T1, SNTG2, Q9NY99
T1 sequence (Q9NY99 68-166, limits assumed, looked up): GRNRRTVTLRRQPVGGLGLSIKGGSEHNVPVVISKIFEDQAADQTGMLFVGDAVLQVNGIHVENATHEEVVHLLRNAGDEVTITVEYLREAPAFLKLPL

[7] = biological target: T2, CARD11, Q9BXL7
T2 sequence (Q9BXL7 662-765, limits assumed, looked up): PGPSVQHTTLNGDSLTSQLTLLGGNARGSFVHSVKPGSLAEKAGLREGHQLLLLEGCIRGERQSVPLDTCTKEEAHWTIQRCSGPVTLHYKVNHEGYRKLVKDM

[8] = biological target: T3, SYNJ2BP, P57105
T3 sequence (P57105 8-110, limits assumed, looked up): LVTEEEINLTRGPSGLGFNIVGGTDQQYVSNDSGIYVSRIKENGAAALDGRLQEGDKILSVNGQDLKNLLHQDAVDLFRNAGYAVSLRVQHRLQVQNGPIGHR

[9] = biological target: AHNAK1, Q09666
Sequence of AHNAK1, Q09666 (Q09666 4-100): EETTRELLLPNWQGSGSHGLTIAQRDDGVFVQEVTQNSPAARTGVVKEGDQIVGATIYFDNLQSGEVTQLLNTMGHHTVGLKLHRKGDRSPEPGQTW

[10] = biological target: FRMPD2_2, Q68DX3
Sequence of FRMPD2_2, Q68DX3 (Q68DX3 944-1038): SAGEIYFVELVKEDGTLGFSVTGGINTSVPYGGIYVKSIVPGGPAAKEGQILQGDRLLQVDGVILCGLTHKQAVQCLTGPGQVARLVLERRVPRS

[11] = biological target: NHERF2_2, Q15599
Sequence of NHERF2_2, Q15599 (Q15599 142-238): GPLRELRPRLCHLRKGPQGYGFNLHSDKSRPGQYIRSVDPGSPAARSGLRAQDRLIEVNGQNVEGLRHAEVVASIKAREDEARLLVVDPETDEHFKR

[12] = biological target: DLG2_2, Q15700
Sequence of DLG2_2, Q15700 (Q15700 189-283): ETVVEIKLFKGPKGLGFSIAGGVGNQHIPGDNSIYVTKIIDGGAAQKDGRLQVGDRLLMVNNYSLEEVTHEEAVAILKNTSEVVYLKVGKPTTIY

[13] = biological target: T4, SNTA1, Q13424
T4 sequence (Q13424 82-180, limits assumed, looked up): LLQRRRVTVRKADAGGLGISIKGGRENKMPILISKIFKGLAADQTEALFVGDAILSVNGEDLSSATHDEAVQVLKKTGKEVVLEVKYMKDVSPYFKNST

[14] = biological target: MAGI2_2, Q86UL8
Sequence of MAGI2_2, Q86UL8 (Q86UL8 410-522): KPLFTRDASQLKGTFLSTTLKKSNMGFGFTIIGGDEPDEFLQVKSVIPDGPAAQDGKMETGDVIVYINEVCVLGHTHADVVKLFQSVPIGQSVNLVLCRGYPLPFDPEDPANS

[15] = biological target: T5, GRIP1_7, Q9Y3R0
T5 sequence (Q9Y3R0 999-1096, limits assumed, looked up): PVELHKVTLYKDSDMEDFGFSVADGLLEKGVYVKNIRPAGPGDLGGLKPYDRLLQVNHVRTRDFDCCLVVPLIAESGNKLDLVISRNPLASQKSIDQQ

[16] = biological target: GRIP2_7, Q9C0E4
Sequence of GRIP2_7, Q9C0E4 (Q9C0E4 934-1023): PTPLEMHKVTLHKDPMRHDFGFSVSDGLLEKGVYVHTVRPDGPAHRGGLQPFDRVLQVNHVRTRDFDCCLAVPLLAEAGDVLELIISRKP

[17] = biological target: T6, APBA3_1, O96018
T6 sequence (O96018 389-490, limits assumed, looked up): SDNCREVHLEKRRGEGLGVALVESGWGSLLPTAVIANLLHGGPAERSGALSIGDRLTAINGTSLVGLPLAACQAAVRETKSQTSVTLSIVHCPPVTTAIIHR

[18] = biological target: DLG1_3, Q12959
Sequence of DLG1_3, Q12959 (Q12959 457-571): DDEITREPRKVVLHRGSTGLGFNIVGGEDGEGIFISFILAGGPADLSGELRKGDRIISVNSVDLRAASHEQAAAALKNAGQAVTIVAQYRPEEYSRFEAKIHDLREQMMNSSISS

[19] = biological target: GORASP2, Q9H8Y8
[20] = biological target: GRIP2_5, Q9C0E4
Sequence of GRIP2_5, Q9C0E4 (Q9C0E4 544-642): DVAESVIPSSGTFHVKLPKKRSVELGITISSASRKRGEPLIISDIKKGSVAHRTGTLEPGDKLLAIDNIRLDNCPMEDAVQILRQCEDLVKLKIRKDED

[21] = biological target: T7, TIAM2, Q8IVF5
T7 sequence (Q8IVF5 885-986, limits assumed, looked up): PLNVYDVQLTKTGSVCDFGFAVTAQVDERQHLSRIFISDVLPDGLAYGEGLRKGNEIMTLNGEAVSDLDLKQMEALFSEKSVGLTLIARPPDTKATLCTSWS

[22] = biological target: LDB3, O75112
Sequence of LDB3, O75112 (O75112 1-94): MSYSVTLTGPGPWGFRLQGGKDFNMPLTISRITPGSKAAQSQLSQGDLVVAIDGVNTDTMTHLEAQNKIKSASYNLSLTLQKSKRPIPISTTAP

[23] = biological target: GORASP1, Q9BQQ3
Sequence of GORASP1, Q9BQQ3 (Q9BQQ3 1-208): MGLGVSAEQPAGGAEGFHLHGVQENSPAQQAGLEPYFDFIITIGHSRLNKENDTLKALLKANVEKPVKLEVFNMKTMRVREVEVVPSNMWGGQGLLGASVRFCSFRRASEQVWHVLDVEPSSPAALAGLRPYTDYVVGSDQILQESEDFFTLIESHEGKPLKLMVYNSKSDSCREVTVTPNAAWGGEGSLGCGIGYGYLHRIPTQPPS

[24] = biological target: T8, MPDZ_12, O75970
T8 sequence (O75970 1857-1958, limits assumed, looked up): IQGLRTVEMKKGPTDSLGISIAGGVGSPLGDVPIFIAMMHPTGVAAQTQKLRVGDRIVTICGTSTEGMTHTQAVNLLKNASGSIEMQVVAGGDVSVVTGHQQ

[25] = biological target: MAST1, Q9Y2H9
Sequence of MAST1, Q9Y2H9 (Q9Y2H9 962-1065): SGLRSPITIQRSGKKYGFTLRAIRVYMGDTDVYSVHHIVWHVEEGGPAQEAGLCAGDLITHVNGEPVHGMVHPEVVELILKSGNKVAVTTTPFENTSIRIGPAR

[26] = biological target: T9, LIN7C, Q9NUP9
T9 sequence (Q9NUP9 88-185, limits assumed, looked up): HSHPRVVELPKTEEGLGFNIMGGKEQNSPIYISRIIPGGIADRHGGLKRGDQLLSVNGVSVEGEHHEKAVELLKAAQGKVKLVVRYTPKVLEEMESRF

[27] = biological target: T10, HTRA3, P83110
T10 sequence (P83110 354-453, limits assumed, looked up): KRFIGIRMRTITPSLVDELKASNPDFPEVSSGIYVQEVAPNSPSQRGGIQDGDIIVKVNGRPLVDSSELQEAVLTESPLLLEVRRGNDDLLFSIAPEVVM

[28] = biological target: GRID2IP_2, A4D2P6
Sequence of GRID2IP_2, A4D2P6 (A4D2P6 272-370): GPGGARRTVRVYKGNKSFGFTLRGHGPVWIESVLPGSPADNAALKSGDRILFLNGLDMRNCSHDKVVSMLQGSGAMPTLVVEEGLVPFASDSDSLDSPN

[29] = plain residues with an end cap or a label only (N-terminal biotin on a linker: ttds)
[30] = plain residues with an end cap or a label only (N-terminal biotin on a linker: ahx)
[31] = plain residues with an end cap or a label only (N-terminal biotin on a linker: ado-ado)

Sequence of DLG4_3, P78352 (P78352 306-403): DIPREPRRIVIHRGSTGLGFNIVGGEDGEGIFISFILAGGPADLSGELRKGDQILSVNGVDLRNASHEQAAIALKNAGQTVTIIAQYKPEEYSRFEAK
Sequence of HTRA2, O43464 (O43464 355-458): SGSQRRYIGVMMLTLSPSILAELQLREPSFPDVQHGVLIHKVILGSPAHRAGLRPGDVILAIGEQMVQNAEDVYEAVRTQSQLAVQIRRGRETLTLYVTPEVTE
Sequence of SCRIB_1, Q14160 (Q14160 718-814): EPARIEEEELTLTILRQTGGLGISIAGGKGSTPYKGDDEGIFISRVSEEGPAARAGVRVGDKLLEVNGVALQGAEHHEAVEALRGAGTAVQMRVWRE
Sequence of MAGI2_5, Q86UL8 (Q86UL8 915-1017): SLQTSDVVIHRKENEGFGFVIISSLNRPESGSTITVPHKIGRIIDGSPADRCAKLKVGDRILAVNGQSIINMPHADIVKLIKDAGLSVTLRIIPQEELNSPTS
Sequence of GRID2IP_1, A4D2P6 (A4D2P6 1-87): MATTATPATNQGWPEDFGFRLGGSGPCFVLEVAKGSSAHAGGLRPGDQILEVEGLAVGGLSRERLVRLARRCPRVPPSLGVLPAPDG

In the case of LCALPKVTTV [AGMAT, Q9BSE5], the pKd [1, 29] is reported as 4.23, the pKd [2, 29] is reported as 4.39 and the pKd [3, 29] is reported as 3.63. For the same binder, the pKd [4, 29] was “below the threshold”, the pKd [5, 29] was 3.8 and the pKd [6, 29] was 4.24. For the same binder, the pKd [7, 29] was “below the threshold”, the pKd [8, 29] was 4.35 and the pKd [9, 29] was “below the threshold”. For the same binder, the pKd [10, 29] was 3.72, the pKd [11, 29] was “below the threshold” and the pKd [12, 29] was 5.35. For the same binder, the pKd [13, 29] was 4.81, the pKd [14, 29] was 4.18 and the pKd [15, 29] was “below the threshold”. For the same binder, the pKd [16, 29] was “below the threshold”, the pKd [17, 29] was “below the threshold” and the pKd [18, 29] was 4.77. The pKd [19, 29] was 5.18, the pKd [20, 29] was “below the threshold” and the pKd [21, 29] was “below the threshold”. For the same binder, the pKd [22, 29] was “below the threshold”, the pKd [23, 29] was 4.11 and the pKd [24, 29] was “below the threshold”. It also gave a pKd [25, 29] of 3.88, a pKd [26, 29] of 4.38 and a pKd [27, 29] of 3.71. For the same binder, the pKd [28, 29] was 4.01.

With TIVSWPGTFL [LNX1, Q8TBB1] the pKd [1, 30] was “below the threshold”, the pKd [2, 30] was “below the threshold” and the pKd [3, 30] was “below the threshold”. For the same binder, the pKd [4, 30] was “below the threshold”, the pKd [5, 30] was 3.94 and the pKd [6, 30] was “below the threshold”. For the same binder, the pKd [7, 30] was “below the threshold”, the pKd [8, 30] was 4.49 and the pKd [9, 30] was “below the threshold”. For the same binder, the pKd [10, 30] was 3.58, the pKd [11, 30] was 4.21 and the pKd [12, 30] was “below the threshold”. The pKd [13, 30] was “below the threshold”, the pKd [14, 30] was “below the threshold” and the pKd [15, 30] was “below the threshold”. For the same binder, the pKd [16, 30] was “below the threshold”, the pKd [17, 30] was “below the threshold” and the pKd [18, 30] was “below the threshold”. For the same binder, the pKd [19, 30] was “below the threshold”, the pKd [20, 30] was “below the threshold” and the pKd [21, 30] was “below the threshold”. For the same binder, the pKd [22, 30] was “below the threshold”, the pKd [23, 30] was “below the threshold” and the pKd [24, 30] was 3.54. It also gave a pKd [25, 30] of 4.25, a pKd [26, 30] of 3.47 and a pKd [27, 30] of 3.62. The pKd [28, 30] was 4.16.

With FVHPILQSAV [PRKCA, P17252] the pKd [1, 31] was 3.88, the pKd [2, 31] was 4.57 and the pKd [3, 31] was 4.73. For the same binder, the pKd [4, 31] was “below the threshold”, the pKd [5, 31] was “below the threshold” and the pKd [6, 31] was 3.64. The pKd [7, 31] was “below the threshold”, the pKd [8, 31] was 5.31 and the pKd [9, 31] was “below the threshold”. For the same binder, the pKd [10, 31] was 3.73, the pKd [11, 31] was “below the threshold” and the pKd [12, 31] was 4.04. For the same binder, the pKd [13, 31] was 3.91, the pKd [14, 31] was 3.9 and the pKd [15, 31] was “below the threshold”. The pKd [16, 31] was “below the threshold”, the pKd [17, 31] was “below the threshold” and the pKd [18, 31] was 3.85. For the same binder, the pKd [19, 31] was “below the threshold”, the pKd [20, 31] was “below the threshold” and the pKd [21, 31] was “below the threshold”. For the same binder, the pKd [22, 31] was “below the threshold”, the pKd [23, 31] was “below the threshold” and the pKd [24, 31] was “below the threshold”. For the same binder, the pKd [25, 31] was 4.23, the pKd [26, 31] was 3.52 and the pKd [27, 31] was “below the threshold”. It also gave a pKd [28, 31] of 4.36.

SRRPRTETQV [HPV31-E6, P17386] was tested, and the pKd [1, 29] was 5.1, the pKd [2, 29] was 4.6 and the pKd [3, 29] was 3.89. The pKd [4, 29] was “below the threshold”, the pKd [5, 29] was “below the threshold” and the pKd [6, 29] was 4.08. For the same binder, the pKd [7, 29] was “below the threshold”, the pKd [8, 29] was 5.41 and the pKd [9, 29] was “below the threshold”. For the same binder, the pKd [10, 29] was “below the threshold”, the pKd [11, 29] was “below the threshold” and the pKd [12, 29] was 5.37. For the same binder, the pKd [13, 29] was 4.29, the pKd [14, 29] was 6.38 and the pKd [15, 29] was “below the threshold”. The pKd [16, 29] was “below the threshold”, the pKd [17, 29] was “below the threshold” and the pKd [18, 29] was 4.6. The pKd [19, 29] was 3.65, the pKd [20, 29] was “below the threshold” and the pKd [21, 29] was “below the threshold”. For the same binder, the pKd [22, 29] was “below the threshold”, the pKd [23, 29] was “below the threshold” and the pKd [24, 29] was “below the threshold”. The pKd [25, 29] was 4.42, the pKd [26, 29] was 3.93 and the pKd [27, 29] was “below the threshold”. The pKd [28, 29] was “below the threshold”.

QFQYAKESYI [TAGAP, Q8N103] was tested, and the pKd [1, 29] was 3.55, the pKd [2, 29] was 3.72 and the pKd [3, 29] was “below the threshold”. For the same binder, the pKd [4, 29] was “below the threshold”, the pKd [5, 29] was “below the threshold” and the pKd [6, 29] was 4.42. For the same binder, the pKd [7, 29] was “below the threshold”, the pKd [8, 29] was 4.71 and the pKd [9, 29] was “below the threshold”. For the same binder, the pKd [10, 29] was 4.33, the pKd [11, 29] was “below the threshold” and the pKd [12, 29] was 4.16. For the same binder, the pKd [13, 29] was 4.97, the pKd [14, 29] was 3.5 and the pKd [15, 29] was “below the threshold”. For the same binder, the pKd [16, 29] was “below the threshold”, the pKd [17, 29] was “below the threshold” and the pKd [18, 29] was 4.05. The pKd [19, 29] was 3.9, the pKd [20, 29] was “below the threshold” and the pKd [21, 29] was “below the threshold”. The pKd [22, 29] was “below the threshold”, the pKd [23, 29] was 3.9 and the pKd [24, 29] was “below the threshold”. The pKd [25, 29] was 3.54, the pKd [26, 29] was 4.21 and the pKd [27, 29] was 3.76. It also gave a pKd [28, 29] of 3.72.
